Experiment [1] addresses Kv7.5 (KCNQ5) B-D construct (Q5BD), tag removed (human) (UniProt Q9NR82). Nature of the experiment: SEC. A general note: SEC sorts molecules by how far they enter the pores of the column.
The target of experiment [2] is Kv7.4 (KCNQ4) B segment (Q4B, residues 522-557), tag removed (human) (UniProt P56696). Nature of the experiment: SEC-MALS.

Stoichiometry N data for 2 substances are collected here from paper PMC3540129.

Sequence of UniProt P56696 (P56696 522-557): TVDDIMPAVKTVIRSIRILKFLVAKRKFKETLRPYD

In experiment [1], “Kv7.5 (KCNQ5) B-D construct (Q5BD), tag removed (from UniProt Q9NR82 1-932) (domain or fragment)” had a stoichiometry N of 4.

As to “Calmodulin (CaM), full-length native (from UniProt P0DP23 1-149) (natural protein)”, the stoichiometry N in experiment [2] turned out to be 1.

Usually stoichiometry N stands for the number of molecules, sites or subunits per partner or assembly.
